This note sets out measurements from the supplement of paper PMC9170038.

The data set relates to MS2 coat protein. Briefly: apparent KD of MS2 coat protein; designed switch direction (-1 OFF switch, 1 ON switch): 1; higher = weaker reporter binding. A digest of the protocol: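 Normalised cluster fluorescence was curve-fitted, and each design's median over clusters is its apparent KD. Before this, SNAP-549-labelled MS2 coat protein was titrated from 0.7 or 1.5 nM, doubling to 3 µM, over RNA switches transcribed on Illumina chips by stalled E. coli RNA polymerase. Titrations had no input, 200 uM small-molecule ligand, or an oligonucleotide input, and steps lasted 0.8–1.5 h (lowest) to 10–20 min (highest).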

[1] abbreviates: input ligand: microRNA oligo, concentration not stated.
Setting [2] is: Eterna round: R95, input ligand: FMN 200 uM.
The mark [3] stands for this setting: Eterna round: R95, input ligand: microRNA oligo, concentration not stated.
[4] abbreviates: Eterna round: R95, input ligand: none.

With “GCGAAAGCAGGAGGAUAUGCAGAGGAUCACCCUGUAGAAGGCCACAGAGGAGGAUAUGCAGAGGAUCACCCUGUAGAAGGCCAC [pwkr ssNG DX.17] (Eterna round: R96, puzzle: Same State NG 1)”, the “apparent KD of MS2 coat protein” value is, setting by setting: (input ligand: FMN 200 uM) 0.176 µM; under setting [1], 0.262 µM; (input ligand: none) 0.303 µM.

In the case of “GCGAAGAGGUAAGGAUAUUCAUGGCAUAGACAUGAGGAUCACCCAUGUAGGAGACGAAUUAGAAGGAAGAAGGUACCAGGACGC [AK SSNG2-V2-18] (Eterna round: R96, puzzle: Same State NG 2)”, the “apparent KD of MS2 coat protein” value (input ligand: FMN 200 uM) was 0.137 µM, the “apparent KD of MS2 coat protein” value under setting [1] was 0.111 µM and the “apparent KD of MS2 coat protein” value (input ligand: none) came out at 0.187 µM.

Turning to “GCGAGCGUACUUGCAGACAUGAGGAUCACCCAUGUAACUGGACAGGAUAUGGUACCGUUUCGGUACCAGAAGGGUUUACAUGUU [JL SSNG3 3.51] (Eterna round: R96, puzzle: Same State NG 3)”, the “apparent KD of MS2 coat protein” value is, setting by setting: (input ligand: FMN 200 uM) 0.0202 µM; under setting [1], 0.0272 µM; (input ligand: none) 0.0477 µM.

Regarding “GCGAGGAUAUGGAGAGGAUCACCCUCUAGAAGGCGCGAAGGCGAGGAUAUGGAGAGGAUCACCCUCUAGAAGGCGCACUUCUCU [pwkr ssNG3 DX 2xF5 +2xFMN.5] (Eterna round: R96, puzzle: Same State NG 3)”, the “apparent KD of MS2 coat protein” value (input ligand: FMN 200 uM) worked out at 0.222 µM, the “apparent KD of MS2 coat protein” value under setting [1] came to 0.162 µM and the “apparent KD of MS2 coat protein” value (input ligand: none) amounted to 0.235 µM.

“GCGAUAUGAUGUUACAUGAGGAUCACCCAUGUAGCGAUAGCUAAGGAUAUUUGAAAGGGAGGAGAAGAGAAGGUAGGAUCACGC [AK SSNG3-V2-22.2] (Eterna round: R96, puzzle: Same State NG 3)”: the “apparent KD of MS2 coat protein” value runs as follows: (input ligand: FMN 200 uM) 0.0246 µM; under setting [1], 0.0186 µM; (input ligand: none) 0.0203 µM.

Take “GCGGAACGGGCCGACAUGAGGAUCACCCAUGUGGCCUCAUGUCAGGAUAUCGGGAAGAAGAAAACCGAGAAGGGACGGUGACGC [AK SSNG3-V2-32] (Eterna round: R96, puzzle: Same State NG 3)”: the “apparent KD of MS2 coat protein” value is, setting by setting: (input ligand: FMN 200 uM) 0.00818 µM; under setting [1], 0.0298 µM; (input ligand: none) 0.0222 µM.

Turning to “GCGGAGAGGUAAGGAUAUCCAUGGAAGACACAUGAGGAUCACCCAUGUGGGAGGGAAACCAGGAGGGAGAAGGUACCGGGACGC [AK SSNG2-V2-21] (Eterna round: R96, puzzle: Same State NG 2)”, the “apparent KD of MS2 coat protein” value (input ligand: FMN 200 uM) stood at 0.0115 µM, the “apparent KD of MS2 coat protein” value under setting [1] is 0.0104 µM and the “apparent KD of MS2 coat protein” value (input ligand: none) was 0.0132 µM.

“GCUACCAUUGAUGCCUACAUGAGGAUCACCCAUGUAUGUAGGCAGGAUAUCGAUUGCAAAGCGAUCGAGAAGGGCUUAGGUAGC [Mat - Same State NG 3 - JL Mod - D93] (Eterna round: R96, puzzle: Same State NG 3)”: the “apparent KD of MS2 coat protein” value is, setting by setting: (input ligand: FMN 200 uM) 0.056 µM; under setting [1], 0.103 µM; (input ligand: none) 0.149 µM.

Take “GCUAGAAAUAAAGCCAACAUGAGGAUCACCCAUGUAUGUUGGUAGGAUAUCGUAUGCAAAGCAUACGAGAAGGGCUAAACUAGC [Mat - Same State NG 3 - JL Mod - D18] (Eterna round: R96, puzzle: Same State NG 3)”: the “apparent KD of MS2 coat protein” value was determined as 0.0916 µM (input ligand: FMN 200 uM), 0.0775 µM under setting [1] and 0.0937 µM (input ligand: none).

With “GCUAGAAUUAAAGCCAACAUGAGGAUCACCCAUGUAUGUUGGUAGGAUAUCGUUUGCUUUGCAAACGAGAAGGGCCAAACUAGC [JL SSNG3 1.07] (Eterna round: R96, puzzle: Same State NG 3)”, the “apparent KD of MS2 coat protein” value worked out at 0.0647 µM (input ligand: FMN 200 uM), 0.143 µM under setting [1] and 0.111 µM (input ligand: none).

On to “GCUAGGAAUAAAGCCAACAUGAGGAUCACCCAUGUAUGUUGGUAGGAUAUCGUAUGCAAAGCAUACGAGAAGGGCUAACCUAGC [Mat - Same State NG 3 - JL Mod - D69] (Eterna round: R96, puzzle: Same State NG 3)”, for which the “apparent KD of MS2 coat protein” value is, setting by setting: (input ligand: FMN 200 uM) 0.0714 µM; under setting [1], 0.0495 µM; (input ligand: none) 0.0648 µM.

With “GCUCAUAGUAUAUGGGUACAAGCUUUUUGACAUGAGGAUCACCCAUGUACUCGUCUUAUGUGCAGUCCGUAGACUGC [JL-shm-2.21 Brourd mod] (puzzle: Sensor for hsa-mir-208a)”, the “apparent KD of MS2 coat protein” value by setting is: under setting [2], 0.104 µM; under setting [3], 0.0173 µM; under setting [4], 0.137 µM.

Turning to “GCUCGAUGAGCGUCCUACAUGAGGAUCACCCAUGUUCGUGGGCAGGAUAUUUACAUGCAGAGUGUAGAGAAGGGCCCAUCGAGC [SameState NG3 #65] (Eterna round: R96, puzzle: Same State NG 3)”, the “apparent KD of MS2 coat protein” value by setting is: (input ligand: FMN 200 uM) 0.546 µM; under setting [1], 0.482 µM; (input ligand: none) 0.477 µM.

In the case of “GCUCGCACGAUGACCCACAUGAGGAUCACCCAUGUGUGUGGGCAGGAUAUCUAGAUUAAGGAUGUAGAGAAGGGUUGAGCGAGC [SameState NG3 #24] (Eterna round: R96, puzzle: Same State NG 3)”, the “apparent KD of MS2 coat protein” value reads like this: (input ligand: FMN 200 uM) 0.513 µM; under setting [1], 0.133 µM; (input ligand: none) 0.138 µM.

“GCUCGUAUGAUGACCGACAUGAGGAUCACCCAUGUGUGUCGGUAGGAUAUCUAUAUUAAGGAUAUAGAGAAGGGCCGAACGAGC [SameState NG3 #17] (Eterna round: R96, puzzle: Same State NG 3)”: the “apparent KD of MS2 coat protein” value (input ligand: FMN 200 uM) was 0.0314 µM, the “apparent KD of MS2 coat protein” value under setting [1] was determined as 0.0629 µM and the “apparent KD of MS2 coat protein” value (input ligand: none) came out at 0.0929 µM.

With “GCUUGCGGCGCAGGAUAUGGGUGCCUGUACAUGAGGAUCACCCAUGUUAAGGGACGGAUUACGAACCAGAAGGGCGUGGCGGGC [Ceerce] (Eterna round: R96, puzzle: Same State NG 2)”, the “apparent KD of MS2 coat protein” value runs as follows: (input ligand: FMN 200 uM) 0.0478 µM; under setting [1], 0.108 µM; (input ligand: none) 0.43 µM.

On to “GGAAUAUGAUGUUACAUGAGGAUCACCCAUGUAGUAAUAACUAAGGAUAUCUGAGGAGGAGGAGAAGAGAAGGUAGGAUCAUAA [AK SSNG3-V2-10] (Eterna round: R96, puzzle: Same State NG 3)”, for which the “apparent KD of MS2 coat protein” value (input ligand: FMN 200 uM) was found to be 0.0238 µM, the “apparent KD of MS2 coat protein” value under setting [1] is 0.0222 µM and the “apparent KD of MS2 coat protein” value (input ligand: none) was 0.0332 µM.

For “GGAAUCUCCAGAGAGGAUAUGCGGCGUUAAACAUGAGGAUCACCCAUGUCCUUCGAAUGGGUAACGCAGAAGGCUCUACGGUUCC [Shapeless] (puzzle: Same State 2)”, the “apparent KD of MS2 coat protein” value stood at 0.115 µM under setting [2], 0.594 µM under setting [3] and 1.22 µM under setting [4].

Regarding “GGAGAGAGAGCGCAGGAUAUUUAAGGAGAAACAUGAGGAUCACCCAUGUGAGAGAGAGAGGAGAGAGAGAAGGGUGAGAGAGAGG [Altered State 2-16 - Jieux - Same State 2] (puzzle: Same State 2)”, the “apparent KD of MS2 coat protein” value amounted to 0.0267 µM under setting [2], 0.0239 µM under setting [3] and 0.0362 µM under setting [4].

As for “GGAGCCAAGGCAGGAUAUUCAUAUUAAAUACAUGAGGAUCACCCAUGUUAGGCCAGAAGGCCUUGGGAGAAGGGCCAUGGCUCG [Xeonanis - 13 mod20] (Eterna round: R96, puzzle: Same State NG 2)”, the “apparent KD of MS2 coat protein” value runs as follows: (input ligand: FMN 200 uM) 0.017 µM; under setting [1], 0.0341 µM; (input ligand: none) 0.0525 µM.

Turning to “GGAGCCAAGGCAGGAUAUUCAUAUUAAAUGACAUGAGGAUCACCCAUGUUGGCCAGAAGGCCAUGGGAGAAGGGCCAUGGCUCG [Xeonanis - 13 mod23] (Eterna round: R96, puzzle: Same State NG 2)”, the “apparent KD of MS2 coat protein” value is, setting by setting: (input ligand: FMN 200 uM) 0.0413 µM; under setting [1], 0.127 µM; (input ligand: none) 0.166 µM.

Turning to “GGAGCCAAGGCAGGAUAUUCAUUAUAAAUAACAUGAGGAUCACCCAUGUUGGCCAGAAGGCCAUGGGAGAAGGGCCAUGGCUCG [Xeonanis - 13 mod24] (Eterna round: R96, puzzle: Same State NG 2)”, the “apparent KD of MS2 coat protein” value is 0.0177 µM (input ligand: FMN 200 uM), 0.0737 µM under setting [1] and 0.105 µM (input ligand: none).

For “GGAGCCGGCACCGAGGAUAUUCAUAUUAAAACAUGAGGAUCACCCAUGUACCGGAGAACCGGUUGGGAGAAGGCGGAUCGGCUCG [Xeonanis - 24] (puzzle: Same State 2)”, the “apparent KD of MS2 coat protein” value stood at 0.0354 µM under setting [2], 0.333 µM under setting [3] and 0.596 µM under setting [4].

In the case of “GGAGCCGGCCUAGGAUAUUUCAUAAAAACACAUGAGGAUCACCCAUGUAGGCCAGAAGGCCUUGGGAAGAAGGAGGUCGGCUCC [Loop Effect - C29] (Eterna round: R96, puzzle: Same State NG 2)”, the “apparent KD of MS2 coat protein” value is, setting by setting: (input ligand: FMN 200 uM) 0.0106 µM; under setting [1], 0.0183 µM; (input ligand: none) 0.0236 µM.

Regarding “GGAGCCGGCCUAGGAUAUUUCAUAAAAAUACAUGAGGAUCACCCAUGUAGGCCAGAAGGCCUUGGGAAGAAGGAGGUCGGCUCC [Loop Effect - U29] (Eterna round: R96, puzzle: Same State NG 2)”, the “apparent KD of MS2 coat protein” value was 0.0107 µM (input ligand: FMN 200 uM), 0.015 µM under setting [1] and 0.0173 µM (input ligand: none).

“GGAGCCGGCCUAGGAUAUUUCAUGAAAAAACAUGAGGAUCACCCAUGUAGGCCAGAAGGCCUUGGGAAGAAGGAGGUCGGCUCC [Loop Effect - G24] (Eterna round: R96, puzzle: Same State NG 2)”: the “apparent KD of MS2 coat protein” value reads like this: (input ligand: FMN 200 uM) 0.0321 µM; under setting [1], 0.151 µM; (input ligand: none) 0.472 µM.
